Source: patent publication US20150017171A1 (CHINA SYNTHETIC RUBBER, published 2015)
Where a chain is given by its changes, count along the chain named.

T1: recombinant human PLVAP51-442 protein (extracellular domain, His tag removed by thrombin) (human, UniProt Q9BX97 51-442)
T1 construct: also called recombinant PLVAP protein; recombinant PLVAP
T1 sequence: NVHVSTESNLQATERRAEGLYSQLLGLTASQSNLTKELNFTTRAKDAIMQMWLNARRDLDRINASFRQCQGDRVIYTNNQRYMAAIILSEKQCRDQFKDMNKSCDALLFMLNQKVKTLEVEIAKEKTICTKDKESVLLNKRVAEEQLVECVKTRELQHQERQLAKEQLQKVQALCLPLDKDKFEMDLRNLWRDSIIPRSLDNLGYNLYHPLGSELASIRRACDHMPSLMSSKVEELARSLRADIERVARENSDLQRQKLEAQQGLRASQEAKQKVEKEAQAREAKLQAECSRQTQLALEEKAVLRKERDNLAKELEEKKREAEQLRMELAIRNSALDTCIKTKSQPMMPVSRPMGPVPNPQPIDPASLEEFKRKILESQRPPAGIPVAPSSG

T2: His-tagged human PLVAP51-292 (human, UniProt Q9BX97 51-292)
T2 construct: also called N-terminal portion of the extracellular domain; not shown: His tag and vector residues of pET-15b
T2 sequence: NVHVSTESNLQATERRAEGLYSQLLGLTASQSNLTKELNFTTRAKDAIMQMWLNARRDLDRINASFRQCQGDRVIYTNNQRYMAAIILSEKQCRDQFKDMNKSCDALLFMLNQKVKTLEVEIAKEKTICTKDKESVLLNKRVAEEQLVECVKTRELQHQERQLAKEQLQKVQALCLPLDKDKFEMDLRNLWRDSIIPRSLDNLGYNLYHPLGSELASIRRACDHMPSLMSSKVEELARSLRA

T3: His-tagged human CEACAM6 (human, UniProt P40199 35-320, limits assumed)
T3 construct: also called human CEACAM6 protein unrelated to PLVAP (lane 4); not shown: His tag
T3 sequence (looked up): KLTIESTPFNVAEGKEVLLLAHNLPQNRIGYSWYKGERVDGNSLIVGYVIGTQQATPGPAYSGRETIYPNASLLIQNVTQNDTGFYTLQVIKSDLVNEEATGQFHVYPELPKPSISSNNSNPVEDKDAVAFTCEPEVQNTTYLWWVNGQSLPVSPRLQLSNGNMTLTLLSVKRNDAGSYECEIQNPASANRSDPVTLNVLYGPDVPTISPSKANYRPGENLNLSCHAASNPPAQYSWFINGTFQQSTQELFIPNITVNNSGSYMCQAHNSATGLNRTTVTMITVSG

B1: KFCC-GY4 monoclonal antibody (murine, hybridoma ATCC PTA-9963) (antibody, mouse IgG1, V domains shown)
VH: EVQLQQSGAEFVRSGASVKLSCTASGFNIKDYYIHWVKQRPEQGLEWIGWIDPENGDIEYAPKFQGKATMTADTSSNTAYLQFSSLTSEDTAVYYCLYQEGSWGQGTTLTVSS
VL: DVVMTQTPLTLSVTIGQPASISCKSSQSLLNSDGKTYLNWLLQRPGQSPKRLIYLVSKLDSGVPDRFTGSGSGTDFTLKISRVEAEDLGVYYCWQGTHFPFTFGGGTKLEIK
notes: also called GY4 mAB; KFCC-GY4 mAb
B2: chimeric KFCC-GY4 antibody (CSR01) (antibody, human IgG4, V domains shown)
VH: B1 VH
VL: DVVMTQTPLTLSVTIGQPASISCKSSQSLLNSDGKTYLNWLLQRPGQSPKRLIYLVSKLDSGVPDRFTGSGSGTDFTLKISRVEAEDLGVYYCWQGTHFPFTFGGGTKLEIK
notes: also called Chimeric GY4; chimeric IgG4-GY4
B3: chimeric KFCC-GY5 antibody (CSR02) (antibody, human IgG4, V domains shown)
VH: QVQLQQPGAELVRPGASVKLSCKASGYTFTSNYINWVKQRPGQGLEWIGNIYPSDGFTNYNQKFKDRATLTVDKSSSTAYMQLSSPTSEDSAVYYCTRNFDVWGAGTTVTVSS
VL: DVVMTQTPLSLPVSLGDQASISCRSSQSLVHSNGNTYLQWYLQKPGQSPKLLIYTVSNRFSGVPDRFSGSGSGPDFTLKISRVEAEDLGVYFCSQSTHVPFTFGSGTKLEIK
notes: also called Chimeric GY5; chimeric IgG4-GY5
B4: humanized KFCC-GY4 antibody CSR01-VH5/VK2 (antibody, human IgG4, V domains shown)
VH: EVQLVQSGAEVKKPGASVKVSCTASGFNIKDYYIHWVRQAPGQGLEWIGWIDPENGDIEYAPKFQGRATITADTSTDTAYMELSSLRSEDTAVYYCLYQEGSWGQGTTVTVSS
VL: DVVMTQSPLSLPVTLGQPASISCKSSQSLLNSDGKTYLNWLQQRPGQSPRRLIYLVSKLDSGVPDRFTGSGSGTDFTLKISRVEAEDVGVYYCWQGTHFPFTFGGGTKVEIKR
notes: also called VH5/VK2 (GY4 variant); CSR01-VH5NK2
B5: humanized KFCC-GY4 antibody CSR01-VH4/VK2 (antibody, human IgG4, V domains shown)
VH: B4 VH with L83F
VL: B4 VL
notes: also called VH4/VK2 (GY4 variant); CSR01-VH4NK2
B6: humanized KFCC-GY4 antibody CSR01-VH4/VK3 (antibody, human IgG4, V domains shown)
VH: B4 VH with L83F
VL: B4 VL with T68S
notes: also called VH4/VK3 (GY4 variant); CSR01-VH4NK3
B7: humanized KFCC-GY4 antibody CSR01-VH5/VK1 (antibody, human IgG4, V domains shown)
VH: B4 VH
VL: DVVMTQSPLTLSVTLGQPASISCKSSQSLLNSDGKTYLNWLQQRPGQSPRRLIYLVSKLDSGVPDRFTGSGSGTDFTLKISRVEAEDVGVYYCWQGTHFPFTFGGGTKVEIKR
notes: also called VH5/VK1 (GY4 variant); CSR01-VH5NK1
B8: humanized KFCC-GY4 antibody CSR01-VH5/VK3 (antibody, human IgG4, V domains shown)
VH: B4 VH
VL: B4 VL with T68S
notes: also called VH5/VK3 (GY4 variant); VH5/VK3 IgG4
B9: humanized KFCC-GY5 antibody CSR02-VH4/VK2 (antibody, human IgG4, V domains shown)
VH: QVQLVQSGSELKKPGASVKVSCKASGYTFTSNYINWVRQAPGQGLEWIGNIYPSDGFTNYNQKFKDRVTITVDKSTSTAYMELSSLRSEDTAVYYCTRNFDVWGQGTTVTVSS
VL: DVVMTQSPLSLPVTLGQPASISCRSSQSLVHSNGNTYLQWYLQKPGQSPQLLIYTVSNRFSGVPDRFSGSGSGTDFTLKISRVEAEDVGVYFCSQSTHVPFTFGQGTKLEIKR
notes: also called VH4/VK2 (GY5 variant); CSR02-VH4NK2
B10: humanized KFCC-GY5 antibody CSR02-VH5/VK2 (antibody, human IgG4, V domains shown)
VH: B9 VH with I48M
VL: B9 VL
notes: also called VH5/VK2 (GY5 variant); CSR02-VH5NK2
B11: humanized KFCC-GY5 antibody CSR02-VH5/VK3 (antibody, human IgG4, V domains shown)
VH: B9 VH with I48M
VL: B9 VL with T74P, F92Y
notes: also called VH5/VK3 (GY5 variant); CSR02-VH5NK3
B12: humanized KFCC-GY5 antibody CSR02-VH4/VK3 (antibody, human IgG4, V domains shown)
VH: B9 VH
VL: B9 VL with T74P, F92Y
notes: also called VH4/VK3 (GY5 variant); VH4/VK3 IgG4

How the values were obtained:
[1] = target: T1, recombinant human PLVAP51-442 protein …; experiment: Biacore T-100
[2] = target: T1, recombinant human PLVAP51-442 protein …; experiment: ANTQ300 quartz crystal microbalance
[3] = target: T1, recombinant human PLVAP51-442 protein …; experiment: competition ELISA on coated recombinant PLVAP; competitor biotinylated murine KFCC-GY4
Description: (§1) The binding of KFCC-GY4 and KFCC-GY5 human antibody variants to recombinant PLVAP was assessed in a competition ELISA. Either a dilution series of variant or control antibody from 30 μg/m to 0.014 μg/m (final concentration) was premixed with a constant concentration of biotinylated murine KFCC-GY4 (0.3 μg/ml, final concentration) or a dilution series of variant or control antibody from 10 μg/m to 0.004 μg/ml (final concentration) was premixed with a constant concentration of biotinylated murine KFCC-GY5 (0.1 μg/ml, final concentration) before incubating for 1 hour at room temperature on a Nunc Immuno MaxiSorp 96 well flat bottom microtitre plate (Fisher Catalogue No. DIS-971-030J) precoated with 1 μg/m recombinant “protein P” diluted in PBS. The binding of the biotinylated mAb was determined by detection with streptavidin-HRP and TMB substrate. After stopping the reaction with 3M HCl, absorbance was measured at 450 nm on a Dynex Technologies MRX TC II plate reader and the binding curves of the test antibodies compared against the mouse reference standard.
The five lead variants of IgG4-GY4 and murine KFCC-GY4 antibodies have very similar binding profiles (FIG. 48). All of the lead variants shown are within two-fold of the original murine monoclonal antibody.

[4] = target: T2, His-tagged human PLVAP51-292; experiment: immunoblot of total protein extract of E. coli expressing the His-tagged protein
Description: (§2) Molecular weight protein standards are resolved in Lane M.

[5] = target: T3, His-tagged human CEACAM6; experiment: as above
Description: as §2

[6] = target: T1, recombinant human PLVAP51-442 protein …; experiment: competition ELISA on coated recombinant PLVAP; competitor biotinylated murine KFCC-GY4 at 0.3 µg/ml
Description: (§3) The binding of chimeric KFCC-GY4 and KFCC-GY5 antibodies to recombinant PLVAP protein was assessed in a competition ELISA. Either a dilution series of chimeric or control antibody from 30 μg/ml to 0.014 μg/m (final concentration) was premixed with a constant concentration of biotinylated murine KFCC-GY4 (0.3 μg/ml, final concentration) or a dilution series of chimeric or control antibody from 10 μg/ml to 0.004 μg/m (final concentration) was premixed with a constant concentration of biotinylated murine KFCC-GY5 (0.1 μg/ml, final concentration) before incubating for 1 hour at room temperature on a Nunc Immuno MaxiSorp 96 well flat bottom microtitre plate (Fisher Catalogue No. DIS-971-030J) precoated with 1 μg/ml recombinant PLVAP protein diluted in PBS. The binding of the biotinylated mAb was determined by detection with streptavidin-HRP and TMB substrate.
(§4) Therefore, the correct variable region sequences for the parent murine monoclonal antibodies were identified and cloned.

[7] = target: T1, recombinant human PLVAP51-442 protein …; experiment: competition ELISA on coated recombinant PLVAP; competitor biotinylated murine KFCC-GY5 at 0.1 µg/ml
Description: as §3, §4

[8] = target: T1, recombinant human PLVAP51-442 protein …; experiment: competition ELISA on coated recombinant PLVAP; competitor biotinylated murine KFCC-GY5
Description: as §1
Similarly, the four lead variants of IgG4-GY5 and murine KFCC-GY5 antibodies have very similar binding profiles (FIG. 49). All of the lead variants shown are within two-fold of the original murine monoclonal antibody.

| Binder | IC50 [3] [µg/mL] | IC50 (ratio compared to GY4 mAb) [3] | IC50 [8] [µg/mL] | IC50 (ratio compared to GY5 mAb) [8] | other results |
| --- | --- | --- | --- | --- | --- |
| B1 | 1.82 | 1 |  |  | Kd [1]: 464 nM; koff [1]: 0.00701 s⁻¹; kon [1]: 15100 M⁻¹ s⁻¹; Kd [2]: 60 nM; binding result [4]: no binding; binding result [5]: no binding; IC50 [6]: 0.98 µg/mL |
| B2 |  |  |  |  | Kd [1]: 406 nM; koff [1]: 0.00212 s⁻¹; kon [1]: 5210 M⁻¹ s⁻¹; IC50 [6]: 0.8 µg/mL |
| B3 |  |  |  |  | Kd [1]: 0.978 nM; koff [1]: 3.01e-05 s⁻¹; kon [1]: 30700 M⁻¹ s⁻¹; IC50 [7]: 0.4 µg/mL |
| B4 | 1.91 | 1.05 |  |  |  |
| B5 | 2.53 | 1.39 |  |  |  |
| B6 | 2.94 | 1.61 |  |  |  |
| B7 | 2.18 | 1.2 |  |  |  |
| B8 | 2.82 | 1.55 |  |  |  |
| B9 |  |  | 0.56 | 1.47 |  |
| B10 |  |  | 0.6 | 1.58 |  |
| B11 |  |  | 0.41 | 1.08 |  |
| B12 |  |  | 0.43 | 1.13 |  |
